Laboratory results reported in US20160304625A1 (WELT BIO MOLECULAR PHARMACEUTICAL, published 2016).

Legend:
[1] = biological target: human membrane bound IgM with kappa light chain (mIgM-kappa) (human, UniProt P01871 1-474); test: cell-based or functional assay
[2] = biological target: T1, mIgG proximal domain peptide ELQLEESCAEAQDGELDG (human); test: competition ELISA, block 'Blocked by mAb 1', mIgG-PD
T1 construct: also called mIgG-PD; 18-mer mIgG
T1 peptide: ELQLEESCAEAQDGELDG

human membrane bound IgM with kappa light chain (mIgM-kappa), sequence (P01871 whole entry, the tested form may be a part): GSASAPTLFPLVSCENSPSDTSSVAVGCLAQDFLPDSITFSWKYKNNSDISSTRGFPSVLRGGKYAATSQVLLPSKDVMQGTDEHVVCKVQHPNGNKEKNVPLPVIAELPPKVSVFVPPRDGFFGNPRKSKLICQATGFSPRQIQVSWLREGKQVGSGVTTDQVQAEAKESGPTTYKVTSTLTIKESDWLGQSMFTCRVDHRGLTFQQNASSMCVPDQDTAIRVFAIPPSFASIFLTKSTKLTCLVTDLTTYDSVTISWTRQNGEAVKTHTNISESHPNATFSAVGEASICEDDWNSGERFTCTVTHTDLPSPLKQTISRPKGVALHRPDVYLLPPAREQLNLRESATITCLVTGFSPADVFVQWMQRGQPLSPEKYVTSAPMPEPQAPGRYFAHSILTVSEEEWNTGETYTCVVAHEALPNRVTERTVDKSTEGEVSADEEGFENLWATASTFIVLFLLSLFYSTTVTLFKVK

clonogenic capacity of CA 46 [1]: 100 fold
binding result [2]: no binding
B1: monoclonal antibody mAb4-2b (antibody, mouse IgG1, V domains shown)
VH: EVQLEESGAELVKPGASLKLSCKASGYTFTSYWMNWVKQRPGQGLEWIGIIHPNSGSTNYNEKFKTKATLTVDKSSSTAYMQLSSLTSEDSAVYYCARTRGNYGMDYWGQGTSVTVSS
VL: DIVMTQSHKFMSTSVGDRVSITCKASQDVSTAVAWYQQKPGQSPTLLIYSASYRNTGVPDRFTGSGSGTDFTFTISSVQAEDLAVYYCQQHFSIPPLTFGAGTKLELKR
